Laboratory results from paper PMC3561105, “A Quartet of PIF bHLH Factors Provides a Transcriptionally Centered Signaling Hub That Regulates Seedling Morphogenesis through Differential Expression-Patterning of Shared Target Genes in Arabidopsis”.

B1: ATHB-2 (HB2) WT (dsDNA)
DNA 1: GGGTCAGATCCACGTGAAGTTCACATGCTTTCCATGC
DNA 2: GCATGGAAAGCATGTGAACTTCACGTGGATCTGACCC
B2: PIL1b WT (dsDNA)
DNA 1: ACGCGGCATTCACGTGAAGTGCACGTGAACTTGGCCA
DNA 2: TGGCCAAGTTCACGTGCACTTCACGTGAATGCCGCGT
B3: IAA2 WT (dsDNA)
DNA 1: TGAGGCCGCCCATGTGGACACGACTC
DNA 2: GAGTCGTGTCCACATGGGCGGCCTCA
B4: IBH1 WT (dsDNA)
DNA 1: AGGCCATAGCCATGTGCCTTCATGTGGTGGTTGGCC
DNA 2: GGCCAACCACCACATGAAGGCACATGGCTATGGCCT
B5: AT4G30410 (bHLH159) WT (dsDNA)
DNA 1: ATAGGAGAAGCACATGCATGCACATGCTACGAATGG
DNA 2: CCATTCGTAGCATGTGCATGCATGTGCTTCTCCTAT
B6: RGA1 WT (dsDNA)
DNA 1: GACCCATTAACACGTGGATCCATCACGTGCTGTCAGTTT
DNA 2: AAACTGACAGCACGTGATGGATCCACGTGTTAATGGGTC
B7: PHYB WT (dsDNA)
DNA 1: ACCATTAGCCCACGTGATCTTGGGCC
DNA 2: GGCCCAAGATCACGTGGGCTAATGGT
B8: HB2 mut4 (G-box and PBE-box) (dsDNA)
DNA 1: GGGTCAGATCCACGGGAAGTTCCCATGCTTTCCATGC
DNA 2: GCATGGAAAGCATGGGAACTTCCCGTGGATCTGACCC
B9: HB2 mut2 (G-box) (dsDNA)
DNA 1: GGGTCAGATCCACGGGAAGTTCACATGCTTTCCATGC
DNA 2: GCATGGAAAGCATGTGAACTTCCCGTGGATCTGACCC
B10: HB2 mut5 (PBE-box) (dsDNA)
DNA 1: GGGTCAGATCCACGTGAAGTTCCCATGCTTTCCATGC
DNA 2: GCATGGAAAGCATGGGAACTTCACGTGGATCTGACCC
B11: RGA1 mut3 (2nd G-box) (dsDNA)
DNA 1: GACCCATTAACACGTGGATCCATCACGGGCTGTCAGTTT
DNA 2: AAACTGACAGCCCGTGATGGATCCACGTGTTAATGGGTC
B12: RGA1 mut2 (1st G-box) (dsDNA)
DNA 1: GACCCATTAACACGGGGATCCATCACGTGCTGTCAGTTT
DNA 2: AAACTGACAGCACGTGATGGATCCCCGTGTTAATGGGTC
B13: PIL1b mut2 (1st G-box) (dsDNA)
DNA 1: ACGCGGCATTCACGGGAAGTGCACGTGAACTTGGCCA
DNA 2: TGGCCAAGTTCACGTGCACTTCCCGTGAATGCCGCGT
B14: PIL1b mut3 (2nd G-box) (dsDNA)
DNA 1: ACGCGGCATTCACGTGAAGTGCACGGGAACTTGGCCA
DNA 2: TGGCCAAGTTCCCGTGCACTTCACGTGAATGCCGCGT

Biological target: T1, GST-PIF3-Flag (Arabidopsis thaliana, UniProt O80536 1-524)
T1 sequence: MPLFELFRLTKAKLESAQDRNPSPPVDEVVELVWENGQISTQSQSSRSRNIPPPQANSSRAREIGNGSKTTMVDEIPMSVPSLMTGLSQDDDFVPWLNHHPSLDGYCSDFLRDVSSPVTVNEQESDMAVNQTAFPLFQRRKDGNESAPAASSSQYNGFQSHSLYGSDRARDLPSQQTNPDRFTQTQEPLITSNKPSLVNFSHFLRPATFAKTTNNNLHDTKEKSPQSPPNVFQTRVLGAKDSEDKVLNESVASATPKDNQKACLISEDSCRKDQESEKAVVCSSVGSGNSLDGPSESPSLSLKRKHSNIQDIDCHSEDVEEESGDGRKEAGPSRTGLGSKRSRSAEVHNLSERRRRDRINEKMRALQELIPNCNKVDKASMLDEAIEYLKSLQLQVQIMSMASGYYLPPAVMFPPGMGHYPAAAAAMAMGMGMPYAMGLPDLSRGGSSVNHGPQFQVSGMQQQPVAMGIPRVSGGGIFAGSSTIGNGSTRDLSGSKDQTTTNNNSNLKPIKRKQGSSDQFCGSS
Assay: EMSA; DPI-ELISA: TBS-T (20 mM Tris-HCl pH 7.5, 180 mM NaCl, 0.1% Tween 20), 5% milk block, 2 pmol probe/well, 100 ng protein, 1 h, competitor 2/10/50 pmol; EMSA: 100
Settings: protein: recombinant, tags: N-term GST, chain copies: 2, label: 5' biotin on one strand (probe), blunt

Does B1 bind?
Result: binds

Does B2 bind?
Result: binds

Biological target: T1, GST-PIF3-Flag
Assay: DPI-ELISA; DPI-ELISA: TBS-T (20 mM Tris-HCl pH 7.5, 180 mM NaCl, 0.1% Tween 20), 5% milk block, 2 pmol probe/well, 100 ng protein, 1 h, competitor 2/10/50 pmol; EMSA: 100
Settings: protein: recombinant, tags: N-term GST, chain copies: 2, label: 5' biotin on one strand (probe), blunt

Does B3 bind?
Result: binds

Does B4 bind?
Result: binds

Does B5 bind?
Result: binds

Does B6 bind?
Result: binds

Does B7 bind?
Result: binds

Biological target: T1, GST-PIF3-Flag
Assay: competition; EMSA; no competition; DPI-ELISA: TBS-T (20 mM Tris-HCl pH 7.5, 180 mM NaCl, 0.1% Tween 20), 5% milk block, 2 pmol probe/well, 100 ng protein, 1 h, competitor 2/10/50 pmol; EMSA: 100
Settings: protein: recombinant, tags: N-term GST, chain copies: 2, blunt

Does B8 bind?
Result: no binding

Does B9 bind?
Result: no binding

Biological target: T1, GST-PIF3-Flag
Assay: competition; EMSA; competes similar to WT; DPI-ELISA: TBS-T (20 mM Tris-HCl pH 7.5, 180 mM NaCl, 0.1% Tween 20), 5% milk block, 2 pmol probe/well, 100 ng protein, 1 h, competitor 2/10/50 pmol; EMSA: 100
Settings: protein: recombinant, tags: N-term GST, chain copies: 2, blunt

Does B10 bind?
Result: binds

Does B11 bind?
Result: binds

Does B12 bind?
Result: binds

Does B13 bind?
Result: binds

Does B14 bind?
Result: binds
